For series [1], the target named is T1, MA-MADS5 full length (A) (Musa acuminata (AAA group, Cavendish …, UniProt E9NW24 1-243)). As to the kind of experiment: EMSA; EMSA with 2 ug recombinant protein or 15 ug nuclear extract, buffer by reference to earlier work; circularization pre-incubation: 60 mM KCl, 8 mM HEPES pH 7.9. Conditions: protein: recombinant, tags: 6xHis (pQE30), chain copies: 2, blunt. Background: A gel shift assay detects complexes by their altered migration in electrophoresis.

Series [2] has as its target MA-MADS5 G (C-terminal) (Musa acuminata (AAA group, Cavendish …, UniProt E9NW24 184-243)). The series is described as above. Conditions: protein: recombinant; tags: 6xHis (pQE30); label: 32P; blunt.
The target in series [3] is MA-MADS5 D (MADS+I+K) (Musa acuminata (AAA group, Cavendish …, UniProt E9NW24 1-183)). Described as above. The following applies: protein: recombinant; tags: 6xHis (pQE30); chain copies: 2; label: 32P; blunt.
Sequence of MA-MADS5 D (MADS+I+K) (Musa acuminata (E9NW24 entry or part of it): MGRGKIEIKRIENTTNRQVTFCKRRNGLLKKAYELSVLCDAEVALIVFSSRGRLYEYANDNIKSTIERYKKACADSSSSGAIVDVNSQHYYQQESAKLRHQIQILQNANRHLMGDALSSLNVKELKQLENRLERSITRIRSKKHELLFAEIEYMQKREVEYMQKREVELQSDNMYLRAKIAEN
Series [4] addresses MA-MADS5 C (MADS+I) (Musa acuminata (AAA group, Cavendish …, UniProt E9NW24 1-73)). The description is as above. Conditions: protein: recombinant; tags: 6xHis (pQE30); chain copies: 2; label: 32P; blunt.
Series [5] concerns the target MA-MADS5 F (K+C) (Musa acuminata (AAA group, Cavendish …, UniProt E9NW24 74-243)). Described as above. The following applies: protein: recombinant; tags: 6xHis (pQE30); label: 32P; blunt.
Series [6] deals with MA-MADS5 E (I+K+C) (Musa acuminata (AAA group, Cavendish …, UniProt E9NW24 61-243)). The description is as above. The following applies: protein: recombinant; tags: 6xHis (pQE30); chain copies: 2; label: 32P; blunt.
Sequence of MA-MADS5 E (I+K+C) (Musa acuminata (E9NW24 entry or part of it): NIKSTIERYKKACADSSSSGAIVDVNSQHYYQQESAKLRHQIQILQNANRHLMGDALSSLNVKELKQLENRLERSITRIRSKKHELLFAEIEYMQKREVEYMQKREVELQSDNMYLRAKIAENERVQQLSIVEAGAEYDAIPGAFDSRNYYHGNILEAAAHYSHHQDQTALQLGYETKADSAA
Series [7] deals with MA-MADS5 full length (A);MA-MADS5 C (MADS+I) (Musa acuminata (AAA group, Cavendish …, UniProt E9NW24;E9NW24 1-243;1-73, |)). Nature of the series: EMSA; intermediate-mobility dimer; EMSA with 2 ug recombinant protein or 15 ug nuclear extract, buffer by reference to earlier work; circularization pre-incubation: 60 mM KCl, 8 mM HEPES pH 7.9. The following applies: protein: recombinant;recombinant; tags: 6xHis (pQE30);6xHis (pQE30); copies: 1;1; label: 32P; blunt.
Sequence of MA-MADS5 full length (A);MA-MADS5 C (MADS+I) (Musa acuminata (chain, as listed by the source |, chain 1 of 2): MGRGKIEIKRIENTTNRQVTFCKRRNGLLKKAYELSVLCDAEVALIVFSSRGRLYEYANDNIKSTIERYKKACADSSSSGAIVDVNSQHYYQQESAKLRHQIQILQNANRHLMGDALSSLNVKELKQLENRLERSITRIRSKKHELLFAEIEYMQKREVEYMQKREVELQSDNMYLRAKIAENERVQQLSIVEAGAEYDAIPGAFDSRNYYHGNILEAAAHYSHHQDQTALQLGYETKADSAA
Sequence of MA-MADS5 full length (A);MA-MADS5 C (MADS+I) (Musa acuminata (chain, as listed by the source |, chain 2 of 2): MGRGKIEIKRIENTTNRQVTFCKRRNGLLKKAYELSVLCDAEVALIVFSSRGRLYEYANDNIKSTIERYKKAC

Series [8] concerns the target MA-MADS5 C (MADS+I);MA-MADS5 D (MADS+I+K) (Musa acuminata (AAA group, Cavendish …, UniProt E9NW24;E9NW24 1-73;1-183, |)). The description is as above. The following applies: protein: recombinant;recombinant; tags: 6xHis (pQE30);6xHis (pQE30); copies: 1;1; label: 32P; blunt.
Series [9] addresses MA-MADS5 full length (A);MA-MADS5 D (MADS+I+K) (Musa acuminata (AAA group, Cavendish …, UniProt E9NW24;E9NW24 1-243;1-183, |)). Described as above. Conditions: protein: recombinant;recombinant; tags: 6xHis (pQE30);6xHis (pQE30); copies: 1;1; label: 32P; blunt.
In series [10] the target is T1, MA-MADS5 full length (A). Nature of the series: EMSA; supershifted by anti-MA-MADS5; EMSA with 2 ug recombinant protein or 15 ug nuclear extract, buffer by reference to earlier work; circularization pre-incubation: 60 mM KCl, 8 mM HEPES pH 7.9. Conditions: protein: recombinant; tags: 6xHis (pQE30); chain copies: 2; label: 32P 5' end; blunt.

Sequence of MA-MADS5 F (K+C) (Musa acuminata (E9NW24 entry or part of it): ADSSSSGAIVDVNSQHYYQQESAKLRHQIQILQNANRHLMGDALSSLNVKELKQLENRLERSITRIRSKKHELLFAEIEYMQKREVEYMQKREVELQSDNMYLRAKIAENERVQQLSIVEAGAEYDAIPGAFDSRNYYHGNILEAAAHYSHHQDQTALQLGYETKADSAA
Sequence of MA-MADS5 G (C-terminal) (Musa acuminata (E9NW24 entry or part of it): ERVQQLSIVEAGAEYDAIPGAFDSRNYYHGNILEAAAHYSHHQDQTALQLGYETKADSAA

B1: CArG motif 8 (MA-LEC) (dsDNA)
DNA 1: CTGGTATCTATTTATGAAATCT
DNA 2: AGATTTCATAAATAGATACCAG
For B1, the binding result in series [1] (label: 32P 5' end) is on record as “binds”.

B2: AGAMOUS element 1 CArG-box (A probe) (dsDNA)
DNA 1: ACTGAAGCTTTCCATTAATGGGAATGACGCACAATCCCAC
DNA 2: GTGGGATTGTGCGTCATTCCCATTAATGGAAAGCTTCAGT
For the molecule B2, the binding result is listed as “binds” in [1] (label: 32P); “no binding” in series [2]; “binds” in series [3]; “binds” in [4]; “no binding” in series [5]; “no binding” in [6]. Further, the binding result in series [7], in series [8] and in [9] was “binds” in each case.

B3: AGAMOUS element m1 (Am probe, CArGm) (dsDNA)
DNA 1: ACTGAAGCTTTCCATGCATGGGAATGACGCACAATCCCAC
DNA 2: GTGGGATTGTGCGTCATTCCCATGCATGGAAAGCTTCAGT
Take B3: the binding result in [1] (label: 32P or unlabeled) is listed as “no binding”.

B4: CArG motif 7 (MA-EXP) (dsDNA)
DNA 1: AAGCACGCATATTTGTGCTGCA
DNA 2: TGCAGCACAAATATGCGTGCTT
On to B4, for which, in series [1] (label: 32P 5' end), the binding result is recorded as “binds”.

B5: CArG motif 9 (MA-LEC) (dsDNA)
DNA 1: ATAAATTCTTAAAAGATCCTAG
DNA 2: CTAGGATCTTTTAAGAATTTAT
On to B5, for which the binding result in [1] (label: 32P 5' end) is on record as “no binding”.

B6: CArG motif 4 (MA-ACS1) (dsDNA)
DNA 1: GATCATGCTTTTATTGTTTCTT
DNA 2: AAGAAACAATAAAAGCATGATC
Regarding B6, in series [1] (label: 32P 5' end), the binding result is given as “no binding”.

B7: CArG motif 6 (MA-ACO1) (dsDNA)
DNA 1: GAACGCCTATAAATTGCCTGGT
DNA 2: ACCAGGCAATTTATAGGCGTTC
Consider B7, for which, in [1] (label: 32P 5' end), the binding result is “no binding”.

B8: CArG motif 3 (MA-ACS1) (dsDNA)
DNA 1: GGGTCAACTATAATTGCCTTCC
DNA 2: GGAAGGCAATTATAGTTGACCC
On to B8, for which the binding result in series [1] (label: 32P 5' end) is “no binding”.

B9: CArG motif 1 (MA-SPS) (dsDNA)
DNA 1: TTGGATTCTTATATGTCACGAA
DNA 2: TTCGTGACATATAAGAATCCAA
In the case of B9, the binding result in [10] is given as “binds”.

B10: CArG motif 5 (MA-ACO1) (dsDNA)
DNA 1: GAGGTTGGCAATTTGTCACTAC
DNA 2: GTAGTGACAAATTGCCAACCTC
Consider B10, for which the binding result in [1] (label: 32P 5' end) is “binds”.

B11: CArG motif 2 (MA-ACS1) (dsDNA)
DNA 1: ACACCCCATAAATTTGATCTTC
DNA 2: GAAGATCAAATTTATGGGGTGT
Turning to B11, in [1] (label: 32P 5' end), the binding result is on record as “binds”.

The values above are taken from publication PMC3439491, “Characterization of an AGAMOUS-like MADS Box Protein, a Probable Constituent of Flowering and Fruit Ripening Regulatory System in Banana”.
